Source: the supplement of paper PMC10126150
± gives the standard deviation of the averaged measurements.

Tested on: ATP
Assay: switch fluorescence ratio, 500 uM ATP over buffer (Cy3 cluster intensity, sum of 5 cycles each) (fold (ratio)); higher = stronger signal-on switching upon ATP binding; sequences stand for … in TCGTCGGCAGCGTCAGATGTGTATAAGAGACAGTTTTTTTTTTTTTTTTTTTTTTTTT…TC
Details: aptamer strand: ATP DNA aptamer (quencher-CACCTGGGGGAGTATTGCGGAGGAAGG + anchor), 100 nM annealed; ATP concentration: 500 uM
Summary of the method: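 Exposure to 500 uM ATP lasted 15 min at 22 °C before imaging, and a selection-buffer image was taken beforehand, for Cy3-labelled switching-strand clusters on a modified Illumina MiSeq flow-cell annealed to 100 nM quencher-labelled ATP aptamer. Five buffer/ATP cycles were run with NaOH stripping and re-annealing between them. The fluorescence ratio per cluster is summed target-cycle over summed buffer-cycle Cy3 intensity, averaged per switch-domain sequence. Clusters outside 100-1000 RFU were excluded.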

Row | Sequence | switch fluorescence ratio
1 | CTATAGAAGG | 1.02 ± 0.025
2 | CTATAGATTT | 0.973 ± 0.02
3 | CTATAGGGGG | 1.007 ± 0.01
4 | CTATAGGTCA | 0.981 ± 0.036
5 | CTATCACCTG | 1.05 ± 0.021
6 | CTATCGATAG | 0.993 ± 0.035
7 | CTATCGGGAC | 1.09 ± 0.026
8 | CTATCGGGAG | 0.9831 ± 0.0025
9 | CTATCTGTTT | 0.9561 ± 0.002
10 | CTATGAAAAG | 1 ± 0.021
11 | CTATGAAGGG | 0.963 ± 0.034
12 | CTATGCGGAA | 1.06 ± 0.038
13 | CTATGCGGTC | 2.39 ± 1.8
14 | CTATGCTGGT | 1.01 ± 0.037
15 | CTATGGTTTT | 1.014 ± 0.003
16 | CTATGTCGGT | 0.974 ± 0.015
17 | CTATTAAGGG | 0.976 ± 0.056
18 | CTATTAATGA | 1.03 ± 0.057
19 | CTATTATGTT | 1 ± 0.019
20 | CTATTCAGGT | 1.01 ± 0.032
21 | CTATTCCTGT | 0.995 ± 0.014
22 | CTATTCGGCC | 0.986 ± 0.02
23 | CTATTCGGGG | 0.981 ± 0.01
24 | CTATTGGGAG | 1.03 ± 0.032
25 | CTATTGTTTT | 1.03 ± 0.079

Row | Sequence | switch fluorescence ratio
26 | CTATTTCATA | 0.992 ± 0.018
27 | CTATTTCCTT | 0.975 ± 0.031
28 | CTATTTGGCA | 1.0113 ± 4.2e-05
29 | CTATTTTGGC | 0.966 ± 0.038
30 | CTATTTTTTT | 1.01 ± 0.02
31 | CTCAATTCAA | 1.02 ± 0.015
32 | CTCAGCAGGG | 1.73 ± 0.17
33 | CTCAGGGTTT | 1.04 ± 0.023
34 | CTCAGTAATT | 1.38 ± 0.046
35 | CTCAGTAGGC | 1.13 ± 0.066
36 | CTCAGTCGGG | 0.991 ± 0.01
37 | CTCATACCTG | 1.05 ± 0.021
38 | CTCATAGGGG | 1.07 ± 0.024
39 | CTCATGAAAA | 1.02 ± 0.02
40 | CTCATGGGTT | 1.02 ± 0.0011
41 | CTCATGGTTG | 0.9638 ± 0.007
42 | CTCATTGTTG | 0.992 ± 0.014
43 | CTCCCCAGGG | 2.689 ± 0.013
44 | CTCCCCCGTC | 1.46 ± 0.37
45 | CTCCCGTCCA | 1.28 ± 0.085
46 | CTCCGGCGCA | 4.19 ± 0.76
47 | CTCCGGCTGG | 1.19 ± 0.14
48 | CTCCGGGCCT | 1.42 ± 0.12
49 | CTCCTAAAGA | 1.05 ± 0.013
50 | CTCCTACACC | 1.25 ± 0.041

Row | Sequence | switch fluorescence ratio
51 | CTCGAAGTGG | 0.996 ± 0.021
52 | CTCGAGGGGG | 1.18 ± 0.34
53 | CTCGAGTAGT | 1.04 ± 0.02
54 | CTCGATAAAA | 0.975 ± 0.022
55 | CTCGATGCGT | 1.04 ± 0.013
56 | CTCGATGTGA | 1.05 ± 0.071
57 | CTCGCAGGCT | 1.25 ± 0.037
58 | CTCGCTGGTA | 1.003 ± 0.0081
59 | CTCGGATAAG | 0.9922 ± 0.007
60 | CTCGGATGTC | 0.991 ± 0.022
61 | CTCGGCTGCG | 0.969 ± 0.084
62 | CTCGGCTGTA | 1.08 ± 0.019
63 | CTCGGGAGAA | 1.016 ± 0.0039
64 | CTCGGGGGGT | 1.01 ± 0.014
65 | CTCGGGGTGC | 1.036 ± 0.004
66 | CTCGGGTGCG | 0.973 ± 0.071
67 | CTCGGTGGTG | 0.959 ± 0.024
68 | CTCGTACGAG | 1.02 ± 0.021
69 | CTCGTGAACT | 1.048 ± 0.0022
70 | CTCGTTATGT | 0.9782 ± 0.0065
71 | CTCTAAATGT | 1.11 ± 0.016
72 | CTCTAATCGG | 1.018 ± 0.0097
73 | CTCTAATGAA | 0.992 ± 0.037
74 | CTCTAGGGGC | 1.128 ± 0.0065
75 | CTCTAGGGGG | 1.05 ± 0.028

Row | Sequence | switch fluorescence ratio
76 | CTCTATGTTA | 1.02 ± 0.076
77 | CTCTCACTGC | 1.32 ± 0.05
78 | CTCTCCTTGT | 1.3 ± 0.38
79 | CTCTGGACTA | 1.11 ± 0.017
80 | CTCTGGGATG | 1.01 ± 0.064
81 | CTCTGGGCTT | 0.99826 ± 8.3e-05
82 | CTCTGGGGGA | 1.05 ± 0.068
83 | CTCTGGTGGC | 1.08 ± 0.054
84 | CTCTGTGCTC | 1.35 ± 0.083
85 | CTCTGTTTAG | 1.48 ± 0.53
86 | CTCTGTTTGC | 1.803 ± 0.0037
87 | CTCTTACGTT | 0.98 ± 0.023
88 | CTCTTAGCTA | 1.17 ± 0.019
89 | CTCTTCTCTT | 0.9657 ± 0.0088
90 | CTCTTGGGGA | 1.02 ± 0.0057
91 | CTGAACGAAT | 1.43 ± 0.034
92 | CTGAACTCGT | 1.03 ± 0.018
93 | CTGAAGCTAG | 2.27 ± 0.0024
94 | CTGAAGGATC | 1.05 ± 0.035
95 | CTGAAGGGCG | 0.979 ± 0.044
96 | CTGAATACGG | 1.115 ± 0.01
97 | CTGAATGCGT | 0.9844 ± 0.0084
98 | CTGAATGGGT | 0.998 ± 0.016
99 | CTGACAAGGC | 1.61 ± 0.27
100 | CTGACAGCGG | 1.06 ± 0.033
